{"source": "patent US20070020706A1", "about": "(UNIVERSITY HOSPITALS OF CLEVELAND, published 2007)", "binders": {"B1": {"name": "full-length human P2X7 receptor (receptor)", "chain": "MPACCSCSDVFQYETNKVTRIQSMNYGTIKWFFHVIIFSYVCFALVSDKLYQRKEPVISSVHTKVKGIAEVKEEIVENGVKKLVHSVFDTADYTFPLQGNSFFVMTNFLKTEGQEQRLCPEYPTRRTLCSSDRGCKKGWMDPQSKGIQTGRCVVHEGNQKTCEVSAWCPIEAVEEAPRPALLNSAENFTVLIKNNIDFPGHNYTTRNILPGLNITCTFHKTQNPQCPIFRLGDIFRETGDNFSDVAIQGGIMGIEIYWDCNLDRWFHHCHPKYSFRRLDDKTTNVSLYPGYNFRYAKYYKENNVEKRTLIKVFGIRFDILVFGTGGKFDIIQLVVYIGSTLSYFGLAAVFIDFLIDTYSSNCCRSHIYPWCKCCQPCVVNEYYYRKKCESIVEPKPTLKYVSFVDESHIRMVNQQLLGRSLQDVKGQEVPRPAMDFTDLSRLPLALHDTPPIPGQPEEIQLLRKEATPRSRDSPVWCQCGSCLPSQLPESHRCLEELCCRKKPGACITTSELFRKLVLSRHVLQFLLLYQEPLLALDVDSTNSRLRHCAYRCYATWRFGSQDMADFAILPSCCRWRIRKEFPKSEGQYSGFKSPY", "notes": "Expressed from cDNA in HEK-293 cells or endogenous in human cells and tissues (CaSki, HeLa, cervical tissue); Mostly assayed in cell extracts on immunoblots, where it runs as 65, 75 and 85 kDa forms; also called P2X7-RFL; P2X7-WT"}, "B2": {"name": "truncated P2X7-j receptor protein (receptor)", "chain": "MPACCSCSDVFQYETNKVTRIQSMNYGTIKWFFHVIIFSYVCFALVSDKLYQRKEPVISSVHTKVKGIAEVKEEIVENGVKKLVHSVFDTADYTFPLQGNSFFVMTNFLKTEGQEQRLCPEYPTRRTLCSSDRGCKKGWMDPQSKGIQTGRCVVHEGNQKTCEVSAWCPIEAVEEAPRPALLNSAENFTVLIKNNIDFPGHNYTTRNILPGLNITCTFHKTQNPQCPIFRLGDIFRETGDNFSDVAIQIRQVLQGKQC", "notes": "Untagged P2X7-j, expressed in HEK-293 cells or endogenous in human cancer cell lines; Runs as 42-45 kDa bands; also called P2X7-RTR"}}, "experiment_in_all_cases": "densitometry of oligomer bands on an immunoblot, HEK293 cells co-expressing P2X7 and P2X7-j", "key": {"[1]": {"target": "the molecule itself"}, "[2]": {"target": "B2"}, "[3]": {"target": "B1"}}}
{"binder": "B1", "values": [{"measurement": "relative band density (ratio)", "setting": "[1]", "result": 10, "unit": "ratio parts"}, {"measurement": "relative band density (ratio)", "setting": "[2]", "result": 5, "unit": "ratio parts"}]}
{"binder": "B2", "values": [{"measurement": "relative band density (ratio)", "setting": "[1]", "result": 70, "unit": "ratio parts"}, {"measurement": "relative band density (ratio)", "setting": "[3]", "result": 15, "unit": "ratio parts"}]}
